In article PMC11064669 one finds Kd and stoichiometry N data, which are given here for one substance.

Experiment [1] deals with LC3B residues 1-120 F52A/L53A (UniProt Q9GZQ8). The experiment in a line: ITC.
The target of a further experiment is LC3B residues 1-120 WT (UniProt Q9GZQ8). The experiment in a line: ITC.

As to “tepsin LIR motif peptide (residues 185-193)”, the Kd in experiment [1] is more than 300 µM; with LC3B residues 1-120 WT it was 44.4 µM. Moreover, the stoichiometry N with LC3B residues 1-120 WT is 0.523.
